The labels stand for the following.
B1: Fcmut-04 (antibody, human IgG1, kappa)
heavy: QVQLVQSGAEVKKPGSSVKVSCKASGYSFSSYNIHWVRQAPGQGLEWMGYIAPFQGDSRYNQKFKGRVTITADKSTSTAYMELSSLRSEDTAVYYCARLNRGNSLDYWGQGTLVTVSSASTKGPSVFPLAPSSKSTSGGTAALGCLVKDYFPEPVTVSWNSGALTSGVHTFPAVLQSSGLYSLSSVVTVPSSSLGTQTYICNVNHKPSNTKVDKKVEPKSCDKTHTCPPCPAPELLGGPSVFLFPPKPKDTLMISRTPEVTCVVVDVSHEDPEVKFNWYVDGVEVHNAKTKPREEQYNSTYRVVSVLTVLHQDWLNGKEYKCKVSNKALPIEKTISKAKGQPREPQVYTLPPSREEMTKNQVSLTCLVKGFYPSDIAVEWESNGQPENNYKTTPPVLDSDGSFFLYSKLTVDKSRWQQGNVFSCSVMHEALHNHYTQKSLSLSPGK
light: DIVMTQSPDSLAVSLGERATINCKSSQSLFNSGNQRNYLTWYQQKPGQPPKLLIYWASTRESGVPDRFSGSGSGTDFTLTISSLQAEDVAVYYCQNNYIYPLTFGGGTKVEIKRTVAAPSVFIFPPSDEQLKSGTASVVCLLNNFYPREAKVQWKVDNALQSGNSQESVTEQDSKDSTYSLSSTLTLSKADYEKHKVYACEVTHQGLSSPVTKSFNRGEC
notes: IgG1-mut of Fcmut-01: deletion of 329 and 330 (EU index)
B2: Fcmut-02 (antibody, human IgG1, kappa)
heavy: QVQLVQSGAEVKKPGSSVKVSCKASGYSFSSYNIHWVRQAPGQGLEWMGYIAPFQGDSRYNQKFKGRVTITADKSTSTAYMELSSLRSEDTAVYYCARLNRGNSLDYWGQGTLVTVSSASTKGPSVFPLAPSSKSTSGGTAALGCLVKDYFPEPVTVSWNSGALTSGVHTFPAVLQSSGLYSLSSVVTVPSSSLGTQTYICNVNHKPSNTKVDKKVEPKSCDKTHTCPPCPAPELLGGPSVFLFPPKPKDTLMISRTPEVTCVVVDVSHEDPEVKFNWYVDGVEVHNAKTKPREEQYNSTYRVVSVLTVLHQDWLNGKEYKCKVSNKALAPIEKTISKAKGQPREPQVYTLPPSREEMTKNQVSLTCLVKGFYPSDIAVEWESNGQPENNYKTTPPVLDSDGSFFLYSKLTVDKSRWQQGNVFSCSVMHEALHNHYTQKSLSLSPGK
light: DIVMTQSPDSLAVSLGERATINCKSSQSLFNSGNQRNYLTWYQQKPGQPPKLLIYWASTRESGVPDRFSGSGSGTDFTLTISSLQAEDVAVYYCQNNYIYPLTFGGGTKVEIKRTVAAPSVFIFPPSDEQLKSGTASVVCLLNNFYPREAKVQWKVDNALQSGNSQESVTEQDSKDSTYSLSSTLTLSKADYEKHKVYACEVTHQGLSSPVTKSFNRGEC
notes: IgG1-mut of Fcmut-01: deletion of 329 (EU index); also called Fcmut-2
B3: Fcmut-06 (antibody, human IgG1, kappa, L234A L235A)
heavy: B2 heavy with L235A, L236A
light: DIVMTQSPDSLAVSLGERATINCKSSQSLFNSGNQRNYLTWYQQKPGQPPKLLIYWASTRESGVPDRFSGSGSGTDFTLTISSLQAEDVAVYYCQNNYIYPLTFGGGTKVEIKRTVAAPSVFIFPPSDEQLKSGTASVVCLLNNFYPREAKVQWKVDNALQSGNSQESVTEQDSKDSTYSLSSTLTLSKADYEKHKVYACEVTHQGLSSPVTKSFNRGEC
notes: IgG1-mut of Fcmut-01: L234A + L235A + deletion of 329 (EU index)
B4: Fcmut-03 (antibody, human IgG1, kappa)
heavy: B2 heavy with A330G
light: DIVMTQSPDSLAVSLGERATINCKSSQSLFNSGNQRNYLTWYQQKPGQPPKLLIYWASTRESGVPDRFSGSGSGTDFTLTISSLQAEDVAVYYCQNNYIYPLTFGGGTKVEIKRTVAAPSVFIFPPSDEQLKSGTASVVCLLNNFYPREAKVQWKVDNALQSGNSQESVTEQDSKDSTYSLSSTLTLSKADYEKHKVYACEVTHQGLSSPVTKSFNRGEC
notes: IgG1-mut of Fcmut-01: deletion of 329, G at 330 (EU index)
B5: Fcmut-24 (antibody, human IgG4 S228P, kappa, F234A L235A)
heavy: QVQLVQSGAEVKKPGSSVKVSCKASGYSFSSYNIHWVRQAPGQGLEWMGYIAPFQGDSRYNQKFKGRVTITADKSTSTAYMELSSLRSEDTAVYYCARLNRGNSLDYWGQGTLVTVSSASTKGPSVFPLAPCSRSTSESTAALGCLVKDYFPEPVTVSWNSGALTSGVHTFPAVLQSSGLYSLSSVVTVPSSSLGTKTYTCNVDHKPSNTKVDKRVESKYGPPCPPCPAPEAAGGPSVFLFPPKPKDTLMISRTPEVTCVVVDVSQEDPEVQFNWYVDGVEVHNAKTKPREEQFNSTYRVVSVLTVLHQDWLNGKEYKCKVSNKGLSIEKTISKAKGQPREPQVYTLPPSQEEMTKNQVSLTCLVKGFYPSDIAVEWESNGQPENNYKTTPPVLDSDGSFFLYSRLTVDKSRWQEGNVFSCSVMHEALHNHYTQKSLSLSLGK
light: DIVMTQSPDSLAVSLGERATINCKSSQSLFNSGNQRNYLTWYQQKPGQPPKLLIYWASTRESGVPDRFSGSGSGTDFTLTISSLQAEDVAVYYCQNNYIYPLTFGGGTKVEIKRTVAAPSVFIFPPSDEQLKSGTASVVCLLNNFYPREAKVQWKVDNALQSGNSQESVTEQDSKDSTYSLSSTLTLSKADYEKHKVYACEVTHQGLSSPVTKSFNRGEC
notes: also called Fcmut-024

Five molecules from patent US20240228579A1 (Innovent, published 2024) can be followed below.

Positions count from the first letter of the chain named. Names may count otherwise.

T10 sequence (P55899 24-297 limits assumed, chain 1 of 2): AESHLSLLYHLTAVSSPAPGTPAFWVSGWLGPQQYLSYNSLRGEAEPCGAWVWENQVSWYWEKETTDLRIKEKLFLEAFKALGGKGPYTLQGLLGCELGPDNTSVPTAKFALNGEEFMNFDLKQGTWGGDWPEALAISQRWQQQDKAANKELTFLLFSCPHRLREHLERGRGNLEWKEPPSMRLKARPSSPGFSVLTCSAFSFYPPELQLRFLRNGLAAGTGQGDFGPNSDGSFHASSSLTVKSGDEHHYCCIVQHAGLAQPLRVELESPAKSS
T10 sequence (P61769 21-119 limits assumed, chain 2 of 2): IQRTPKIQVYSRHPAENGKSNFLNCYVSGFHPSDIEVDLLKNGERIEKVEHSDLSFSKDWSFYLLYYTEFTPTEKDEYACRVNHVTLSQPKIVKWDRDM

In one assay the target is T1, human C1q (human, UniProt P02745 23-245; P02746 28-253; P02747 29-245).
T1 construct: Bought C1q (Complement Technology); also called C1q antigen
T1 sequence (P02745 23-245 limits assumed, chain 1 of 3): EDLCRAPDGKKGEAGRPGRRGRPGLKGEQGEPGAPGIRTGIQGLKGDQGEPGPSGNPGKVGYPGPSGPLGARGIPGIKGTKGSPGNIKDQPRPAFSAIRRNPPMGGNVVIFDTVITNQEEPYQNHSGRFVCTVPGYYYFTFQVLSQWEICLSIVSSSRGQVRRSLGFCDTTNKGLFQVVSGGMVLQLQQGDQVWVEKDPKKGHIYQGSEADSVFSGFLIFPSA
T1 sequence (P02746 28-253 limits assumed, chain 2 of 3): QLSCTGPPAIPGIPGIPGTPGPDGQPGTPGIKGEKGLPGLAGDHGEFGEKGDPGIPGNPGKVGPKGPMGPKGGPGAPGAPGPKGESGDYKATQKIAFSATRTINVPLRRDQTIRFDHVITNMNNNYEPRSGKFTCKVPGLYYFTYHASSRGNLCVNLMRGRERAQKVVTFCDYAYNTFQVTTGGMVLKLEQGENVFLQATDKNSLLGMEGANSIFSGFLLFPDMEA
T1 sequence (P02747 29-245 limits assumed, chain 3 of 3): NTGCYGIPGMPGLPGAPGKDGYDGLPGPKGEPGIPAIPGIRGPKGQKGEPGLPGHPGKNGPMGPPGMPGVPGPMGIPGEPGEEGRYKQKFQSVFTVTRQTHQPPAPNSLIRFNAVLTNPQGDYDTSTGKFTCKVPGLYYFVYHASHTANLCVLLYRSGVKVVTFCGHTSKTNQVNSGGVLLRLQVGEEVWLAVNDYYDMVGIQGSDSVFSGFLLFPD
The experiment in a line: BLI (Octet), biotinylated antibody on SA sensor, C1q 40 nM. A general note: Biolayer interferometry detects binding as a change in optical thickness at a sensor tip.
Method: (§1) The antibody was diluted to approximately 100 nM, and C1q (Δ099, Complement Technology) was diluted to 40 nM.
(§2) Detection was conducted using Fortebio Octet Red96e, and the sensors were arranged according to the positions of the samples. […] After the experiment was completed, KD values were analyzed using ForteBio Octet analysis software, the coordinate axis data were derived, and Graphpad Prism 8 software was used for plotting.
With B1, the Response was -0.0027 nm.
In the case of B2, the Response was 0.0007 nm.
Still for that read-out and setting: the result for B3 reads -0.0035 nm; that for B4, 0.0016 nm.

For a further assay, the target named is T2, Human CD64/FCGR1A protein (human, UniProt P12314 16-288, limits assumed).
T2 construct: Bought, his-tagged; also called FcγRI; not shown: his tag
T2 sequence (P12314 16-288 limits assumed): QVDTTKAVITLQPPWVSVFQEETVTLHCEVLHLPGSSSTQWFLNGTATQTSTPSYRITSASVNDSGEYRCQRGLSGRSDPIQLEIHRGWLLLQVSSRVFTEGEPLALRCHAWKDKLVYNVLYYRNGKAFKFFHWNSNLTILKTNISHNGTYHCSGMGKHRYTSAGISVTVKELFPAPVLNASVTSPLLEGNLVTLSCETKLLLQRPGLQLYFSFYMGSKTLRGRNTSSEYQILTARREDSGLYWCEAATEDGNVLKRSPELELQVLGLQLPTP
Put plainly: SPR (Biacore T200), his-tagged receptor captured, antibody in flow. A general note: In SPR one partner is held on a chip, and binding of the other changes the refractive index at the surface.
By Kd is commonly meant the concentration at which binding is half-saturated. Lower therefore signals tighter binding. Molecule B1 returned a Kd of 15 nM.
Still for that read-out and setting: the result for B2 reads 9.31 nM.
Still for that read-out and setting: the result for B4 reads 13.8 nM.

The next assay has as its target T2, Human CD64/FCGR1A protein. Put plainly: SPR (Biacore T200).
From the text: (§3) The specific procedures were as follows: Each of FcγR and FcRn proteins (for information of each Fc receptor, see Table 2 below) containing a histidine tag was captured to the chip surface to which anti-histidine antibodies were coupled, and the binding and dissociation between the proteins on the chip surface and antibodies in the mobile phase were detected to obtain affinity and kinetic constants.
(§4) Affinity assay: Each cycle included capture of the receptor, binding of a certain concentration of the antibody carrying the Fc region mutation of the present application, and regeneration of the chip. […] In each cycle, the antibody mutant solution flowed over the chip surface at a flow rate of 30 μL/min, with the binding time of 60 s and the dissociation time of 60 s. […] The obtained data were analyzed using Biacore T200 analysis software (version number 3.1) and using an analysis 1:1 binding or homeostasis analysis model to obtain the corresponding results.
B1: the “fold reduction of binding against Fcmut-01” value is 14 times.
Same read-out and setting: the value for B2 was 8.7 times; that for B4 was 12.9 times.

A further assay has as its target T1, human C1q. Put plainly: BLI (Octet), biotinylated antibody on SA sensor.
Method: as §1, §2
As for B5, the binding result is “no binding (tested: C1q 40 nM)”.

The next assay deals with T3, Human FcγRIIIA/CD16A (F176) protein (human, UniProt P08637 17-208).
T3 construct: Bought, his-tagged; not shown: his tag
T3 sequence (P08637 17-208 limits assumed): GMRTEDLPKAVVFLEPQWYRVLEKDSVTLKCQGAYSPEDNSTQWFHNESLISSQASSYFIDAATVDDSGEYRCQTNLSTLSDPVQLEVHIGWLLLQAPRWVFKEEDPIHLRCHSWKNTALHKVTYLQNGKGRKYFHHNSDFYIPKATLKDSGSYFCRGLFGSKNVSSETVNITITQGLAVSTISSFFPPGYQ
The experiment in a line: SPR (Biacore T200).
B1: the binding result is “no binding (tested: 400 nM)”.
On to B2, for which the binding result is listed as “no binding (tested: 400 nM)”.
Same read-out and setting: the result for B3 reads “no binding (tested: 400 nM)”.
The same measure, in the same setting: the value for B4 was “no binding (tested: 400 nM)”.

The target in another assay is T4, Human FcγRIIIB/CD16B (NA2) (human, UniProt O75015 17-200, limits assumed).
T4 construct: Bought, his-tagged; not shown: his tag
T4 sequence (O75015 17-200 N65S limits assumed): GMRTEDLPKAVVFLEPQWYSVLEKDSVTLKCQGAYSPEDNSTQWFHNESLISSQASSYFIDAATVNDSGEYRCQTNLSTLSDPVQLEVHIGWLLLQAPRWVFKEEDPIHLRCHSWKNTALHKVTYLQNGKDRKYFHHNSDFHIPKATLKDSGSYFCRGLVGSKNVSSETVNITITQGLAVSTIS
The experiment in a line: SPR (Biacore T200).
Regarding B1, the binding result was “no binding (tested: 400 nM)”.
Still for that read-out and setting: the result for B2 reads “no binding (tested: 400 nM)”; that for B3, “no binding (tested: 400 nM)”; that for B4, “no binding (tested: 400 nM)”.

In a further assay the target is T5, Human FcγRIIIA/CD16A (V176) protein (human, UniProt P08637 17-208).
T5 construct: Bought, his-tagged; not shown: his tag
T5 sequence (P08637 17-208 F176V limits assumed): as the sequence (P08637 17-208 limits assumed) above, with F160V counted along it
Put plainly: SPR (Biacore T200).
Regarding B1, the binding result was “no binding (tested: 400 nM)”.
The same measure, in the same setting: the result for B2 reads “no binding (tested: 400 nM)”; that for B3, “no binding (tested: 400 nM)”.
The same measure, in the same setting: the result for B4 reads “no binding (tested: 400 nM)”.

The target in the next assay is T6, Human CD32A/FCGR2A protein (167Arg) (human, UniProt P12318 34-218, limits assumed).
T6 construct: Bought, his-tagged; also called CD32A (R167); CD32A R167; not shown: his tag
T6 sequence (looked up): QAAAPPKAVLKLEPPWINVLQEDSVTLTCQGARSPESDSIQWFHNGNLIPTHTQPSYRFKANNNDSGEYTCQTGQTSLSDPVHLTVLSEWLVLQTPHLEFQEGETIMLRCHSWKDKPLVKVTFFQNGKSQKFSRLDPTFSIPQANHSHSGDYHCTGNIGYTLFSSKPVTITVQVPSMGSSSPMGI
Put plainly: SPR (Biacore T200).
On to B1, for which the binding result is listed as “no binding (tested: 400 nM)”.
Still for that read-out and setting: the value for B2 was “no binding (tested: 400 nM)”; that for B3 was “no binding (tested: 400 nM)”; that for B4 was “no binding (tested: 400 nM)”.

For the next assay, the target named is T7, Human FcγRIIIB/CD16B (NA1) (human, UniProt O75015 17-200, limits assumed).
T7 construct: Bought, his-tagged; not shown: his tag
T7 sequence (O75015 other isoform, or with tags, fused parts or gaps limits assumed): as the sequence (O75015 17-200 N65S limits assumed) above, with S20R, S49N, N66D, I90V counted along it
The experiment in a line: SPR (Biacore T200).
As to B1, the binding result is “no binding (tested: 400 nM)”.
Same read-out and setting: the result for B2 reads “no binding (tested: 400 nM)”; that for B3, “no binding (tested: 400 nM)”.
Same read-out and setting: the value for B4 was “no binding (tested: 400 nM)”.

Another assay deals with T2, Human CD64/FCGR1A protein. Put plainly: SPR (Biacore T200). This is another data set of the same source.
From the text: as §3, §4
With B3, the binding result is “no binding (tested: 400 nM)”.

In a further assay the target is T8, Human CD32B/FCGR2B protein (human, UniProt P31994 43-217, limits assumed).
T8 construct: Bought, his-tagged; also called FcγRIIb; not shown: his tag
T8 sequence (looked up): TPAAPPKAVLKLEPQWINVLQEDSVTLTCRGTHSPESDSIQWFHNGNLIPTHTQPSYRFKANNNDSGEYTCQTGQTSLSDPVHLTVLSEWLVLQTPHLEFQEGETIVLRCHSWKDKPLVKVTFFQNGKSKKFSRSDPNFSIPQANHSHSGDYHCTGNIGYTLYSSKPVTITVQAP
Put plainly: SPR (Biacore T200).
As for B1, the binding result was “no binding (tested: 400 nM)”.
Still for that read-out and setting: the value for B2 was “no binding (tested: 400 nM)”; that for B3 was “no binding (tested: 400 nM)”.
Same read-out and setting: the result for B4 reads “no binding (tested: 400 nM)”.

In the next assay the target is T9, Human CD32A/FCGR2A protein (167his) (human, UniProt P12318 34-218, limits assumed).
T9 construct: Bought, his-tagged; also called CD32A (H167); CD32A H167; not shown: his tag
T9 sequence (looked up): T6 sequence (looked up) with R134H
Put plainly: SPR (Biacore T200).
B1: the binding result is reported as “no binding (tested: 400 nM)”.
As for B2, the binding result is reported as “no binding (tested: 400 nM)”.
For the molecule B3, the binding result is reported as “no binding (tested: 400 nM)”.
Same read-out and setting: the result for B4 reads “no binding (tested: 400 nM)”.

For a further assay, the target named is T1, human C1q. Put plainly: BLI (Octet), biotinylated antibody on SA sensor. This is another data set of the same source.
Method: as §1, §2
Regarding B2, the binding result is reported as “no binding (tested: C1q 40 nM)”.
On the same count and under the same terms, the result for B4 reads “no binding (tested: C1q 40 nM)”.

The next assay has as its target T10, Human FcRn/FCGRT & B2M heterodimeric protein (human, UniProt P55899 24-297; P61769 21-119).
T10 construct: Bought heterodimer with His and Strep II tags
The experiment in a line: SPR (Biacore T200), FcRn captured, antibody in flow, pH 6.0; pH 6.0.
From the text: as §3, §4
In the case of B1, binding was characterised by a dissociation constant (Kd) of 505 nM.
On the same count and under the same terms, the result for B2 reads 447 nM; that for B3, 284 nM; that for B4, 317 nM.

In another assay the target is T2, Human CD64/FCGR1A protein. The experiment in a line: SPR (Biacore T200), his-tagged CD64 captured on anti-His CM5 chip, antibody as analyte, pH 7.4, 1:1 binding fit.
From the text: as §3, §4
Usually koff stands for the first-order rate constant of dissociation. Higher therefore signals a short-lived complex. One may read the kon as the rate constant with which the complex forms. A lower kon goes with slow association. In turn, B1 had a koff of 0.0141 s⁻¹ and a kon of 938000 M⁻¹ s⁻¹.
For the molecule B2, the koff stood at 0.0136 s⁻¹ and the kon was 1.46e+06 M⁻¹ s⁻¹.
The corresponding values for B4 are 0.0377 s⁻¹ and 2.74e+06 M⁻¹ s⁻¹.

A further assay has as its target T11, Claudin18.2 (cp0007, Genscript) (UniProt P56856-2 1-261, limits assumed).
T11 construct: Bought antigen used in BLI; also called Claudin18.2 antigen; the antigen
T11 sequence (looked up): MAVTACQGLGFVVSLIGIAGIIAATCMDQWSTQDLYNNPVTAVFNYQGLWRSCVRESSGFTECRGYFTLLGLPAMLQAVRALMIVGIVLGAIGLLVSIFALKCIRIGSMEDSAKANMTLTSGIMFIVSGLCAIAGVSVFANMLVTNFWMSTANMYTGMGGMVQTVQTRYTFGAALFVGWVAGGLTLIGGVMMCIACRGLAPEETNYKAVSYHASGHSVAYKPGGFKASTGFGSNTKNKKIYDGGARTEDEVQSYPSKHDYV
The experiment in a line: BLI (Octet), antibody on AHC sensor, Claudin18.2 100 nM.
Method: The antibody and Claudin18.2 (cp0007, Genscript) were diluted to 100 nM, respectively.
Detection was conducted using Fortebio Octet Red96e, and the sensors were arranged according to the positions of the samples. […] After the experiment was completed, KD values were analyzed using ForteBio Octet analysis software.
Molecule B1 showed a Kd of 2.83 nM, a Response of 0.146 nm, a dissociation rate constant (koff) of 0.0002 s⁻¹ and a kon of 70700 M⁻¹ s⁻¹.
Molecule B2 yielded a Kd of 2.73 nM, a Response of 0.138 nm, a koff of 0.0002 s⁻¹ and a kon of 73200 M⁻¹ s⁻¹.
The corresponding values for B3 are 2.44 nM, 0.144 nm, 0.0002 s⁻¹ and 81900 M⁻¹ s⁻¹.
The corresponding values for B4 are 2.9 nM, 0.15 nm, 0.0002 s⁻¹ and 69000 M⁻¹ s⁻¹.
